Data as given in IntAct's records for PubMed 14660673.

B1: F-box protein MET30 (Saccharomyces cerevisiae), P39014 (parent)
chain: MRRERQRMMSFEDKDKDDLDNSNSNNSSEMTDTAMMPPLKRLLITGSSDDLAQGSSGKKKMTMATRSPSSSPDLATNDSGTRVQPLPEYNFTKFCYRHNPDIQFSPTHTACYKQDLKRTQEINANIAKLPLQEQSDIHHIISKYSNSNDKIRKLILDGILSTSCFPQLSYISSLVTHMIKIDFISILPQELSLKILSYLDCQSLCNATRVCRKWQKLADDDRVWYHMCEQHIDRKCPNCGWGLPLLHMKRARIQQNSTGSSSNADIQTQTTRPWKVIYRERFKVESNWRKGHCRIQEFKGHMDGVLTLQFNYRLLFTGSYDSTIGIWDLFTGKLIRRLSGHSDGVKTLYFDDRKLITGSLDKTIRVWNYITGECISTYRGHSDSVLSVDSYQKVIVSGSADKTVKVWHVESRTCYTLRGHTEWVNCVKLHPKSFSCFSCSDDTTIRMWDIRTNSCLKVFRGHVGQVQKIIPLTIKDVENLATDNTSDGSSPQDDPTMTDGADESDTPSNEQETVLDENIPYPTHLLSCGLDNTIKLWDVKTGKCIRTQFGHVEGVWDIAADNFRIISGSHDGSIKVWDLQSGKCMHTFNGRRLQRETQHTQTQSLGDKVAPIACVCIGDSECFSGDEFGCVKMYKFDLND

Variants of: B1
Settings: with skp1_yeast SKP1, P52286
skp1_yeast SKP1, P52286, sequence (P52286 whole entry): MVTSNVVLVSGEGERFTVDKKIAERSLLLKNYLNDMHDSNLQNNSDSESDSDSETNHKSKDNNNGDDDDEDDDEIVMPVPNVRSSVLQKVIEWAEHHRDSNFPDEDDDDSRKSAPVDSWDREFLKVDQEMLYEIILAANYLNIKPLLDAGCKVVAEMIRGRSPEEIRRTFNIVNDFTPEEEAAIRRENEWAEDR

Variant | effect of a mutation on the interaction
Q167R | disrupting interaction strength
C211Y | disrupting interaction strength
S169P | disrupting interaction strength

Next, values leading:

effect of a mutation on the interaction | Variant
disrupting interaction strength | P188S
disrupting interaction strength | P188L
disrupting interaction strength | S163N

Variants of: B1
Settings: with skp1_yeast SKP1, P52286
Remark: another data set of the same source

effect of a mutation on the interaction | Variant
decreasing interaction | L187D;E190A
